Residue numbers refer to the chain shown, from its start.
Legend:
[1] = substrate: I domain-GST, recombinant GST fusion protein containing amino acids 127-340 of the human VLA-1 α1 subunit (human) (UniProt P56199); experiment: SPR, mAb captured on anti-human IgG, I domain-GST in solution, 1 mM Mg2+
[2] = substrate: I domain-GST, recombinant GST fusion protein containing amino acids 127-340 of the human VLA-1 α1 subunit (human) (UniProt P56199); experiment: competition: I domain-GST binding to immobilized collagen IV, anti-GST-HRP
[3] = target: biotinylated I domain-GST (human) (UniProt P56199); experiment: competition: I domain-btn binding to immobilized collagen IV, streptavidin-HRP
[4] = substrate: I domain-GST, recombinant GST fusion protein containing amino acids 127-340 of the human VLA-1 α1 subunit (human) (UniProt P56199); experiment: SPR, mAb captured on anti-human IgG, I domain-GST in solution, 1 mM Mg2+, titration screen (*)
[5] = substrate: I domain-GST, recombinant GST fusion protein containing amino acids 127-340 of the human VLA-1 α1 subunit (human) (UniProt P56199); experiment: SPR, mAb captured on anti-human IgG, I domain-GST in solution, no Mg2+
[6] = substrate: I domain-GST, recombinant GST fusion protein containing amino acids 127-340 of the human VLA-1 α1 subunit (human) (UniProt P56199); experiment: SPR, mAb captured on anti-human IgG, I domain-GST in solution, no Mg2+, titration screen (*)

Sequence of I domain-GST, recombinant GST fusion protein containing amino acids 127-340 of the human VLA-1 α1 subunit (human) (P56199 151-364 limits assumed, form in doubt): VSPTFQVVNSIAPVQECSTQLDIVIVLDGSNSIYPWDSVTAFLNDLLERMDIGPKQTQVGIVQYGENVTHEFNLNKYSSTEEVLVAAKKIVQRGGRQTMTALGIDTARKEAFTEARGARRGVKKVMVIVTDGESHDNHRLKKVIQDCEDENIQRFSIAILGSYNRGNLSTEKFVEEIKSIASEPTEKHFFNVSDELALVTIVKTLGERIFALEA

B1: 3.2 (antibody, V domains shown)
VH: QVQLVESGGGVVQPGRSLRLSCAASGFTFSSYGIHWVRQAPGKGLEWVAVIWYDGSDIYYADSVKGRFTISRDNSKNTLYLQMNSLRAEDTALYYCARESSGWTFDYWGQGTLVTVSS
VL: QSALTQPASVSGSPGQSITISCTGTSSDVGGYNYVSWYQQHPGKAPKLMIYEVSNRPSGISNRFSGSKSGNTASLTISGLQAEDEADYYCSSYTSSSTIIFGGGTKLTVL
Work on B1 yielded a Kd [1] of 0.04 nM, a koff [1] of 1.43e-05 s⁻¹ and a kon [1] of 354000 M⁻¹ s⁻¹. It also gave an IC50 [2] of 3.2 nM and an IC50 [3] of 1.6 nM.

B2: 2.11 (antibody, V domains shown)
VH: QVQLQESGPGLVKPSQTLSLTCTVSGGSINSGGYYWSWIRQHPGKGLEWIGYIFYSGSTYYNPSLKSRVNISVDTSKNQFSLKMSSVTAADTAVYYCARDQDGFDYWGQGTLVTVSS
VL: DIVMTQTPLSLPVTPGEPASISCRSSQSLLDSDDGNTYLDWYLQKPGQSPQLLIYTLSYRASGVPDRFSGSGSGTDFTLKISRVEAEDVGVYYCMQRIEFPWTFGQGTKVEIK
With B2 the Kd [4] was 0.025 nM, the koff [4] was 8e-06 s⁻¹ and the kon [4] was 318000 M⁻¹ s⁻¹. The Kd [5] was 0.889 nM, the koff [5] was 0.000208 s⁻¹ and the kon [5] was 234000 M⁻¹ s⁻¹.

B3: 2.1 (antibody, V domains shown)
VH: QVQLQESGPGLVKPSQTLSLTCTVSGGSISSGGYYWSWIRQHPGKGLEWIGYIYNSGSTYYNPSLKSRGTISADTSKNQFSLKLSSVTAADTAVYYCARGSSSYYWYFDLWGRGTLVTVSS
VL: DIQMTQSPSSMSASVGDRVTITCRASQRISSNLNWYQQKPGKAPKFLIYGASSLQSGVPSRFSGSGSGTDFTLTISSLRPEDFATYYCQQSYSTPYTFGPGTKVDIK
B3 was tested, and the Kd [5] was 4.62 nM, the koff [5] was 0.00211 s⁻¹ and the kon [5] was 456000 M⁻¹ s⁻¹.

B4: 2.19 (antibody, V domains shown)
VH: QVQLQESGPGLVKPSETLSLTCTVSGDSISSYYWSWIRQPPGKGLEWIGYVYYSGSTNYNPSLKSRVTMSVDTSKNQFSLKLSSVTAADTAVYYCARDLELYAFDIWGQGTMVTVSS
VL: EIVLTQFPGTLSLSPGERVTLSCRASQSVSSTYVVWYQQKPGQAPRLLIYGASSRATGIPDRFSGSGSGTDFTLTISRLEPEDFAVYYCQQHGSSPWTFGQGTKVEIK
B4 was tested, and the Kd [1] was 0.243 nM, the koff [1] was 0.000131 s⁻¹ and the kon [1] was 538000 M⁻¹ s⁻¹. For the same binder, the IC50 [2] was 7.4 nM, the Kd [5] was 0.478 nM and the koff [5] was 5.93e-05 s⁻¹. The kon [5] was 124000 M⁻¹ s⁻¹ and the IC50 [3] was 3 nM.

B5: 10.1 (antibody, V domains shown)
VH: QVQLQQSGPGLVKPSETLSLTCTVSGASISSYYWSWIRQPAGKGLEWIGRIYASGSTNYNPSLKSRVTMSVDTSKSQFSLNLSSVTAADTAVYYCAREGWERLQDYYYYGLDVWGQGTTVTVSS
VL: B4 VL with F7S, V19A, S31R, T32N, V34L, V35A, Y37N, H92Y, W97L, Q101G
Binder B5 has a Kd [4] of 0.068 nM, a koff [4] of 3.1e-05 s⁻¹ and a kon [4] of 453000 M⁻¹ s⁻¹. It also gave an IC50 [2] of 5.5 nM, a Kd [5] of 1.04 nM and a koff [5] of 0.000173 s⁻¹. For the same binder, the kon [5] was 166000 M⁻¹ s⁻¹ and the IC50 [3] was 3.1 nM.

B6: 6.3 (antibody, V domains shown)
VH: QVLLQESGPGLVKPSQTLSLTCTVSGGSISSGGYYWSWIRQHPGKGLEWIGYINYSGSAYYNPSLKSRVTISVDTSKNQFSLKLSSVTAADTAVYYCARDHWLLRGFDYWGQGTLVTVSS
VL: DIVMTQTPLSLSVTPGQPASISCKSSQSLLHSDGKTYLYWYLQKPGQPPQLLIYEVSNRFSGVPDRFSGSGSGTDFTLKISRVEAEDVGVYYCMQSIQLPRTFGQGTKVEIK
B6 was tested, and the Kd [5] was 1.69 nM, the koff [5] was 0.000243 s⁻¹ and the kon [5] was 144000 M⁻¹ s⁻¹.

B7: 2.7 (antibody, V domains shown)
VH: EVQLVESGGGLVKPGGSLRLSCAASGFTFSNAWMSWVRQAPGKGLEWVGRIKRKTDGETTDYAAPVKGRFTISRDDSRNTLYLQMNSLKTEDTAVYYCTIYTYYYGMDVWGQGTTVTVSS
VL: DIQMTQSPSSLSASVGDRVTITCRASQSINNYLNWYQQKPGKAPKLLIYAASSLESGVPSRFSGSGSGTDFTLTISSLQPEDFATYYCQQSYSTPPTFGQGTKVEIK
In the case of B7, the koff [6] is reported as 8.22e-05 s⁻¹, the kon [6] is reported as 134000 M⁻¹ s⁻¹ and the Kd [4] is reported as 0.117 nM. For the same binder, the koff [4] was 3.77e-05 s⁻¹, the kon [4] was 321000 M⁻¹ s⁻¹ and the IC50 [2] was 6.4 nM. For the same binder, the IC50 [3] was 2.4 nM.

B8: 2.25 (antibody, V domains shown)
VH: QVQLQQSGPGLVKPSQTLSLTCAISGDSVSSNSAAWNWIRQSPSRGLEWLGRTYYMSKWYNDYAVSVKSRITINPDTSKNQFSLQLNSVTPEDTAVYYCARARYCGGDCYDFDYWGQGTLVTVSS
VL: B7 VL with Q6H, N30S, N31I, Y32S, K42N, E55Q, V58I, Y92F, P96W
In the case of B8, the Kd [1] is reported as 1.57 nM, the koff [1] is reported as 1.3e-05 s⁻¹ and the kon [1] is reported as 8300 M⁻¹ s⁻¹. The Kd [5] was 1.46 nM, the koff [5] was 0.000111 s⁻¹ and the kon [5] was 75800 M⁻¹ s⁻¹.

B9: 6.17 (antibody, V domains shown)
VH: EVQLVQSGAEVKKPGESLRISCKGSGYSVSSYWIGWVRQMPGKGLEWMGIIYPGDSDTRYSPSFQGQVTISADKSISTAFLQWISLKASDTAMYYCARLQGDCSGGSCYGHFDYWGQGTLVTVS
VL: EIVLTQSPGTLSLSPGERATLSCRASQTISSGYLAWYQQKPAQAPRLLIYVASRRATGIPDRFSGSGSGTDFTLTISRLEPEDFAVYYCQQYGSSSWTFGQGTTVEIK
With B9 the Kd [4] was 0.255 nM, the koff [4] was 0.000136 s⁻¹ and the kon [4] was 533000 M⁻¹ s⁻¹. It also gave an IC50 [2] of 12 nM, a Kd [5] of 1.63 nM and a koff [5] of 0.000154 s⁻¹. For the same binder, the kon [5] was 94600 M⁻¹ s⁻¹ and the IC50 [3] was 7.6 nM.

B10: 6.18 (antibody, V domains shown)
VH: B9 VH with S30T, F80Y, I84S, S107T
VL: B9 VL with T28S, I29V, G32S, S94T
In the case of B10, the Kd [6] is reported as 0.574 nM, the koff [6] is reported as 7.08e-05 s⁻¹ and the kon [6] is reported as 123000 M⁻¹ s⁻¹. It also gave a Kd [4] of 0.138 nM, a koff [4] of 7.2e-05 s⁻¹ and a kon [4] of 523000 M⁻¹ s⁻¹. It also gave an IC50 [2] of 7.6 nM and an IC50 [3] of 3.3 nM.

B11: 6.48 (antibody, V domains shown)
VH: B9 VH with Y114C
VL: DVVLTQSPLSLPVTLGQPASISCRSSQSLVNSDGDTYLSWFQQWPGQSPRRLFYEVSNWDSGVPDRFSGSGSGTDFTLKISRVEAEDVGVYYCMQGTHWLTFGGGTKVEIK
With B11 the Kd [4] was 0.216 nM, the koff [4] was 0.000121 s⁻¹ and the kon [4] was 561000 M⁻¹ s⁻¹. For the same binder, the IC50 [2] was 9.8 nM and the IC50 [3] was 6.1 nM.

Source: US20060286112A1
